{"source": "patent US8741840B2", "about": "“BMP-7 for use in treating neointimal hyperplasia” (Washington University, priority 2008, dated 2014)", "molecules": {"B1": {"name": "BMP-7: bone morphogenetic protein-7 (osteogenic protein-1), mineralization-countering morphogen; provided by Johnson and Johnson (protein, listed as Homo sapiens)", "chain": "STGSKQRSQNRSKTPKNQEALRMANVAENSSSDQRQACKKHELYVSFRDLGWQDWIIAPEGYAAYYCEGECAFPLNSYMNATNHAIVQTLVHFINPETVPKPCCAPTQLNAISVLYFDDSSNVILKKYRNMVVRACGCH"}}, "key": {"hVSMC [1]": {"tested_on": "hVSMC", "experiment": "RT-PCR of osteoblastic differentiation program genes in hVSMC", "format": "cell-based, human", "method": "(§1) Cell Culture: Human adult aorta were obtained from seven cadaveric organ donors rejected because of atherosclerosis by Mid-America Transplant Services (St. Louis, Mo.) and enzymatically digested to obtain Human Smooth Muscle Cells (HSMC). Medial tissue was separated from the adventia and intima and digested with collagenase type I (Worthington, Lakewood, N.J.) 2 mg/ml for 1 hr, and washed with Hank's balanced salt solution (HBSS). Further digestion followed with collagenase type II 1 mg/ml (Worthington, Lakewood, N.J.) and elastase 0.25 mg/ml (Worthington, Lakewood, N.J.) for 4 hrs. Cell suspensions were washed twice with HBSS and cultured in T-75 flasks for three weeks in a 95%/5% air/CO2 humidified environment at 37° C. The growth medium used was DMEM containing […] glucose (high glucose), 10% fetal bovine serum (FBS, Atlas, Fort Collins, Colo.), 1 mM sodium pyruvate, 100 units/ml Penicillin and […] Streptomycin (Sigma, St Louis, Mo.). Cell purity was assessed by positive immunostaining for α-smooth muscle actin and calponin and for the absence of von Willebrand factor. In all experimental protocols, cells were seeded at 1×10^5 cells/well in six-well plates. Medium was changed on the first day and every third day thereafter. In all cases, cells used were between passages two and five (Table 3).\nRT-PCR: RNA was extracted from cell cultures using RNeasy Mini Kits (Qiagen, Valencia, Calif.). Semi-quantitative RT-PCR was conducted using Roche 1st Strand cDNA Synthesis Kit (Indianapolis, Ind.) and PCR kit from Invitrogen (Grand Island, N.Y.) according to manufacturer's instructions using a two-step method. 1 μg of total RNA was reverse transcribed and random primers were added for 60 min at 42° C., prior to PCR. Forward and Reverse primers (Table 4) were added and the reactions subjected to PCR for 20-35 cycles. The number of cycles necessary to amplify cDNA but remain within the exponential amplification range was determined for each primer set. GAPDH was used as internal standard to assess loading. Genomic contamination was assessed by heat inactivation of the reverse transcriptase prior to RT-PCR. Primers were designed using Vector NTI soft ware (Invitrogen, Grand Island, N.Y.) and optimal conditions for each prime pairs were determined (Table 4). A Perkin-Elmer DNA Thermal Cycler was used to perform the reaction. Products were separated on a 2% agarose E-gel (Invitrogen, Grand Island, N.Y.), and visualized with ethidium bromide. The band intensity was analyzed first by scanning the gel on a Typhoon 9410 gel imager (Amersham Biosciences), quantified by using TotalLab software v2003.03 (Nonlinear Dynamics, Durham, N.C.) and normalized for loading by comparison to GAPGH. Negative controls were performed by inactivating the reverse transcriptase by boiling for 5 min prior to RT-PCR to insure that genomic DNA was not amplified.\nStimulation of osteoblastic differentiation through osterix induction. […] Osterix (E) was only weakly expressed in basal culture conditions. Phosphorus stimulated transcription of osterix (E). […] The data in A-E were normalized to the expression level in basal culture conditions and expressed as fold induction, mean±SEM, n=3. In: Principles of Bone Biology, edited by Bilezikian J P et al., New York, Academic Press, 1996, pp 51-67; Hoffmann H M et al., Proc. Nat. […]"}, "hVSMC [2]": {"tested_on": "hVSMC", "experiment": "RT-PCR of contractile VSMC markers in hVSMC", "format": "cell-based, human", "method": "as §1\nRT-PCR: RNA was extracted from cell cultures using RNeasy Mini Kits (Qiagen, Valencia, Calif.). Semi-quantitative RT-PCR was conducted using Roche 1st Strand cDNA Synthesis Kit (Indianapolis, Ind.) and PCR kit from Invitrogen (Grand Island, N.Y.) according to manufacturer's instructions using a two-step method. […] The number of cycles necessary to amplify cDNA but remain within the exponential amplification range was determined for each primer set. […] Genomic contamination was assessed by heat inactivation of the reverse transcriptase prior to RT-PCR. Primers were designed using Vector NTI soft ware (Invitrogen, Grand Island, N.Y.) and optimal conditions for each prime pairs were determined (Table 4). […] The band intensity was analyzed first by scanning the gel on a Typhoon 9410 gel imager (Amersham Biosciences), quantified by using TotalLab software v2003.03 (Nonlinear Dynamics, Durham, N.C.) and normalized for loading by comparison to GAPGH. […]\nExpression of contractile VSMC markers in human cells. […] Calponin (Panel A), alpha smooth muscle actin (alpha SMA) (Panel B), heavy chain myosin (MHSCM) (Panel C), and SM22 alpha (Panel D) message levels detected by RT-PCR were low in hVSMC in basal conditions (open bars, Group A) and in the presence of high phosphorus media (black bars, Group B). […] The data in Panels A-D were normalized to the expression level in basal culture conditions and expressed as fold induction, mean±SEM, n=3. […]"}, "[3]": {"tested_on": "aortas of LDLR−/− high fat fed mice", "experiment": "Aortic expression of calcification related genes by real time RT-PCR", "format": "in vivo, mouse", "conditions": "CKD mice, BMP-7, 3% CaCO3 or 3% LaCO3 treated", "method": "Real Time Quantitative RT-PCR: Following reverse transcription performed as above, real time was performed using the MX 4000 (Strategene, La Jolla, Calif.), SYBR Green from Sigma (St. Louis) and the PCR kit from Invitrogen. Each reaction was performed in triplicate at 95° C., 45 sec, and 60° C., 30 sec, and 60 sec at 72° C. for 40 cycles. This was followed by a melt cycle, which consisted of stepwise increase in temperature from 72° C. to 99° C. […] Ct numbers (threshold values) were set within the exponential phase of PCR and were used to calculate the expression levels of the genes of interest. GAPDH was used as an internal standard and used to normalize the values. A standard curve consisting of the cT versus log cDNA dilutions (corresponding to the log copy numbers) was generated by amplifying serial dilutions of cDNA corresponding to an […] amount of amplicon.\nExpression of calcification related genes. To relate the mechanism of phosphorus action detected in vitro to this model of CKD induced vascular calcification and hyperphosphatemia in vivo, the inventors of the instant invention analyzed aortic expression of the osteoblastic lineage genes including osterix message levels by real time RT-PCR. […] Data are expressed as the mean of the transcript levels relative to GAPDH expression in each aorta±SEM, N=3. […] (Hoffman 1994;Ducy P. et al., Mol Cell Biol 15:1858-1869, 1995)^32;41"}}, "data": [{"molecule": "B1", "values": [{"measurement": "osteocalcin expression", "setting": "hVSMC [1]; 2 mM phosphorus plus 10 ng/ml BMP-7 (FIG. 5A)", "result": "inhibited osterix and osteocalcin expression"}, {"measurement": "BMP-2 expression", "setting": "hVSMC [1]; 2 mM phosphorus plus 10 ng/ml BMP-7 (FIG. 5B)", "result": "failed to affect expression"}, {"measurement": "RUNX2 expression", "setting": "hVSMC [1]; 2 mM phosphorus plus 10 ng/ml BMP-7 (FIG. 5D)", "result": "failed to affect expression"}, {"measurement": "osterix expression", "setting": "hVSMC [1]; 2 mM phosphorus plus 10 ng/ml BMP-7 (FIG. 5E)", "result": "strongly inhibited osterix expression"}, {"measurement": "Calponin message level", "setting": "hVSMC [2]; high phosphorus media plus BMP-7 (FIG. 8A)", "result": "induced expression of each of the marker proteins"}, {"measurement": "alpha smooth muscle actin (alpha SMA) message level", "setting": "hVSMC [2]; high phosphorus media plus BMP-7 (FIG. 8B)", "result": "induced expression of each of the marker proteins"}, {"measurement": "heavy chain myosin (MHSCM) message level", "setting": "hVSMC [2]; high phosphorus media plus BMP-7 (FIG. 8C)", "result": "induced expression of each of the marker proteins"}, {"measurement": "SM22 alpha message level", "setting": "hVSMC [2]; high phosphorus media plus BMP-7 (FIG. 8D)", "result": "induced expression of each of the marker proteins"}, {"measurement": "CBFA1 expression in aorta", "setting": "[3]; relative to GAPDH (FIG. 9B)", "result": "inhibited"}, {"measurement": "Osterix expression in aorta", "setting": "[3]; relative to GAPDH (FIG. 9C)", "result": "inhibited"}, {"measurement": "Osteocalcin expression in aorta", "setting": "[3]; relative to GAPDH (FIG. 9D)", "result": "inhibited"}]}]}
